Among the data in PMC7091491 are KM of Arc-st11-ssrA degradation (0.1 μM ClpX, 0.3 μM ClpP) and KM of Arc-st11-ssrA degradation (0.1 μM ClpX, 0.3 μM ClpP); approximate values, retold here.

Experiment [1] addresses wild-type single-chain ClpX^ΔN pseudohexamer (E. coli) (UniProt P0A6H1).
Experiment [2] has as its target linker-deletion ClpX^ΔN single-chain pseudohexamer (E. coli) (UniProt P0A6H1).
Experiment [3] deals with G12-insertion ClpX^ΔN single-chain pseudohexamer (E. coli) (UniProt P0A6H1).

For Arc-st11-ssrA, the KM of Arc-st11-ssrA degradation (0.1 μM ClpX, 0.3 μM ClpP) in experiment [1] was 2.5 µM; in experiment [3] it was 4.1 µM. In addition, in experiment [2], the KM of Arc-st11-ssrA degradation (0.1 μM ClpX, 0.3 μM ClpP); approximate turned out to be 20 µM.
